# Reference: patent US20240368263A1 (PROMETHEUS BIOSCIENCES, published 2024)
# T1: human TL1A (endogenous, human whole blood assay) (human, UniProt O95150 1-251, limits assumed)
# T1 sequence (looked up): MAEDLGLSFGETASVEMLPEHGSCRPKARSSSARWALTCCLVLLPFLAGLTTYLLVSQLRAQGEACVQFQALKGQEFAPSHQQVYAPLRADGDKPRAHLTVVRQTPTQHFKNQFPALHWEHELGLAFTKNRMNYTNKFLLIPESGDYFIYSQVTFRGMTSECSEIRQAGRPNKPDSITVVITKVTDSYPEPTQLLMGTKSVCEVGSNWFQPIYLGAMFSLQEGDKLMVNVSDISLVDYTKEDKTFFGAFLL
# T2: membrane-associated human TL1A on transfected HEK293 cells (human, UniProt O95150 1-251)
# T2 construct: whole, on cells
# T2 sequence (looked up): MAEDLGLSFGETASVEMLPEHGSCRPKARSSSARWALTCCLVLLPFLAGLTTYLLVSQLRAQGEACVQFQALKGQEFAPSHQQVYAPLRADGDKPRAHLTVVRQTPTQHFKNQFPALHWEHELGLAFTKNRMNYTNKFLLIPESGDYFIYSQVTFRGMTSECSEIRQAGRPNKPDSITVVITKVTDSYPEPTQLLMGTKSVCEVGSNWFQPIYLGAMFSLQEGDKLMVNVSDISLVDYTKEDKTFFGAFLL
# T3: Fas/TNFSF6 (R&D Systems, cat. no. 126-FL/CF) (UniProt P48023 134-281)
# T3 sequence (looked up): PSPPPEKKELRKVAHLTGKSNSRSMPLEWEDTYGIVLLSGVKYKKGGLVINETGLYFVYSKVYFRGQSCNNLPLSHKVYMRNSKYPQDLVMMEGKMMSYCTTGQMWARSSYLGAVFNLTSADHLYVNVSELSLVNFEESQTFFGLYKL
# T4: human TL1A (Fitzgerald, Prod. #30R-AT070) (human, UniProt O95150 72-251, limits assumed, biotinylated with EZ-Link Sulfo-NHS-LC-Biotin where used as soluble antigen)
# T4 construct: also called TNFSF15; biotinylated human TL1A
# T4 sequence (looked up): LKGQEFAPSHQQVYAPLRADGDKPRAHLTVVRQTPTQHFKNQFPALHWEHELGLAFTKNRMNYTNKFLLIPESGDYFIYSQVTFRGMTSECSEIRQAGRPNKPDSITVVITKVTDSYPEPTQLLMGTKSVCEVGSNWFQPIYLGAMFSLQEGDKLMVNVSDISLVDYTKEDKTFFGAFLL
# Experiments:
# [1] = target: T1, human TL1A (endogenous, human whole …); assay: cell-based or functional assay
# [2] = target: T2, membrane-associated human TL1A on …; assay: flow cytometry, HEK293 cells transfected with human TL1A
# Method: All the Fab variants were tested for binding to membrane-associated human TL1A. For these studies a HEK293 cell line that had been transfected with human TL1A was used. The 293 cells expressing membrane bound human TL1A were maintained in DMEM containing L-glutamine, glucose, sodium pyruvate, and phenol red (ThermoFisher cat #11995-065) plus 10% fetal bovine serum, 1X penicillin-streptomycin (Fisher cat #15140122) and 2 μg/ml puromycin (Gibco cat #A11138-03) in a 37° C. incubator with 5% CO2. Three days prior to the assay, a T-75 flask was seeded with 3×10⁶ cells so that the flask was 90-95% confluent on the day of the assay. The media was aspirated and the cell monolayer was gently washed with 5 ml PBS. Adherent cells were removed by repeatedly pipetting 10 ml ice cold 1% BSA/PBS against the monolayer. The cells were counted and 5×10⁵ were aliquoted for each sample to be analyzed. The cells were collected by centrifuging at 300× g at 4° C. for 5 minutes and the wash was discarded. The cells were resuspended in 100 μl Fab or IgG diluted in 1% BSA/PBS and placed on ice for 30 min. Next, the cells were washed with 1 ml 1% BSA/PBS and collected by centrifuging at 300× g at 4° C. for 5 min. The wash was discarded and 100 μl secondary goat F (ab′) 2 anti-human kappa FITC (Southern Biotech cat #2062-02) or goat F (ab′) 2 anti-human IgG PE (Southern Biotech cat #2043-09) conjugate, diluted 1:200 in BSA/PBS was added. Cells were placed on ice for 30 min. Finally, the cells were washed with 1 ml BSA/PBS, collected by centrifuging at 300× g at 4° C. for 5 min. The wash was removed and the cells were resuspended in 500 μl 1% BSA/PBS. One drop of Sytox AADvanced ReadyFlow Reagent (ThermoFisher cat #R37173) was added per sample and the samples were analyzed on the Attune NXT Flow Cytometer (ThermoFisher).
# [3] = target: TRAIL/TNFSF10 (R&D Systems, cat. no. 375-TL/CF) (UniProt P50591 114-281); assay: ELISA, antigen coated at 1 µg/ml, Fab titrated
# Chain of TRAIL/TNFSF10 (R&D Systems, cat. no. 375-TL/CF) (P50591 114-281 limits assumed): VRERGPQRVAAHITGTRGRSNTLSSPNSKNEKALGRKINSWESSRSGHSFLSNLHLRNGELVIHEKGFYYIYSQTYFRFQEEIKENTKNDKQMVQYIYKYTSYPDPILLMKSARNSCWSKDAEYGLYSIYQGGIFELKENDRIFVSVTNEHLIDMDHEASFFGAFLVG
# Method: (§1) Next, all the Fab variants were characterized for their selectivity for human TL1A relative to other TNFSF members TRAIL, LIGHT and Fas. […] The plate was washed 3 times with PBS-T and blocked with 100 μl of 1% BSA/PBS. The block was discarded and the Fab variants or control antibodies (Fas/TNFSF6, R&D Systems, cat. no. AF126; TRAIL/TNFSF10, R&D Systems, cat. no. AF375; LIGHT/TNFSF14, R&D Systems, cat. no. AF664) were titrated in 50 μl 1% BSA/PBS and incubated for 1 h at 25° C. The plate was washed 3 times with PBS-T and secondary HRP-conjugated antibody (diluted 5,000-fold in 1% BSA/PBS) was added for 1 h at 25° C. The plate was washed 3 times with PBS-T and developed.
# [4] = target: LIGHT/TNFSF14 (R&D Systems, cat. no. 664-LI/CF) (UniProt O43557 74-240); assay: ELISA, antigen coated at 1 µg/ml, Fab titrated
# Chain of LIGHT/TNFSF14 (R&D Systems, cat. no. 664-LI/CF) (O43557 74-240 limits assumed): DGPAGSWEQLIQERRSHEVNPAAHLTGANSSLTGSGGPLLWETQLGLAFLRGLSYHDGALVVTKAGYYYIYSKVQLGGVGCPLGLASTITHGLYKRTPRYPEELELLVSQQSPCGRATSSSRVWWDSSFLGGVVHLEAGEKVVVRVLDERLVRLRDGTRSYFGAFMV
# Method: as §1
# [5] = target: T3, Fas/TNFSF6 (R&D Systems, cat. no. …); assay: ELISA, antigen coated at 1 µg/ml, Fab titrated
# Method: as §1
# [6] = target: T4, human TL1A (Fitzgerald, Prod. …); assay: two ELISA formats: Fab on coated TL1A; captured Fab with biotinylated TL1A
# Method: Fabs with the CDRs shown in Tables 19 to 22 were tested for binding to human TL1A in multiple formats. Next, uniform (saturating) quantities of soluble Fab variants were captured on the surface of an ELISA plate and soluble, biotinylated human TL1A was titrated as shown in FIGS. 10 to 13.
"IC50, inhibition of IFN-γ production, human whole blood assay [1] [nM]",binding result [2],binding result [3],binding result [4],binding result [5],binding result [6],Binder
0.16,–,–,–,–,–,"clone 34, IgG2 / kappa (antibody) heavy: QVQLVQSGAEVKKPGASVKVSCKASGFDIQDTYMHWVRQAPGQGLEWMGRIEPASGHIKYDPKFQGRVTMTRDTSTSTVYMELSSLRSEDTAVYYCARSGGLPDWWGQGTTVTVSSASTKGPSVFPLAPCSRSTSESTAALGCLVKDYFPEPVTVSWNSGALTSGVHTFPAVLQSSGLYSLSSVVTVPSSNFGTQTYTCNVDHKPSNTKVDKTVERKCCVECPPCPAPPVAGPSVFLFPPKPKDTLMISRTPEVTCVVVDVSHEDPEVQFNWYVDGVEVHNAKTKPREEQFNSTFRVVSVLTVVHQDWLNGKEYKCKVSNKGLPAPIEKTISKTKGQPREPQVYTLPPSREEMTKNQVSLTCLVKGFYPSDIAVEWESNGQPENNYKTTPPMLDSDGSFFLYSKLTVDKSRWQQGNVFSCSVMHEALHNHYTQKSLSLSPGK light: EIVLTQSPGTLSLSPGERATLSCRASSSVSYMYWYQQKPGQAPRLLIYATSNLASGIPDRFSGSGSGTDFTLTISRLEPEDFAVYYCQQWEGNPRTFGGGTKLEIKRTVAAPSVFIFPPSDEQLKSGTASVVCLLNNFYPREAKVQWKVDNALQSGNSQESVTEQDSKDSTYSLSSTLTLSKADYEKHKVYACEVTHQGLSSPVTKSFNRGEC"
1.01,–,–,–,–,–,"clone 47, IgG2 / kappa (antibody) heavy: QVQLVQSGAEVKKPGASVKVSCKASGFDIQDTYMHWVRQAPGQGLEWMGRIEPASGHVKYDPKFQTRVTMTRDTSTSTVYMELSSLRSEDTAVYYCARSGGLPDWWGQGTTVTVSSASTKGPSVFPLAPCSRSTSESTAALGCLVKDYFPEPVTVSWNSGALTSGVHTFPAVLQSSGLYSLSSVVTVPSSNFGTQTYTCNVDHKPSNTKVDKTVERKCCVECPPCPAPPVAGPSVFLFPPKPKDTLMISRTPEVTCVVVDVSHEDPEVQFNWYVDGVEVHNAKTKPREEQFNSTFRVVSVLTVVHQDWLNGKEYKCKVSNKGLPAPIEKTISKTKGQPREPQVYTLPPSREEMTKNQVSLTCLVKGFYPSDIAVEWESNGQPENNYKTTPPMLDSDGSFFLYSKLTVDKSRWQQGNVFSCSVMHEALHNHYTQKSLSLSPGK light: EIVLTQSPGTLSLSPGERATLSCRASSSVSYMYWYQQKPGQAPRLLIYATSNLASGIPDRFSGSGSGTDFTLTISRLEPEDFAVYYCQQWEGNPRTFGGGTKLEIKRTVAAPSVFIFPPSDEQLKSGTASVVCLLNNFYPREAKVQWKVDNALQSGNSQESVTEQDSKDSTYSLSSTLTLSKADYEKHKVYACEVTHQGLSSPVTKSFNRGEC"
–,binds,no binding,no binding,no binding,binds,"Clone XL3-15 Fab (Fab, V domains shown, Fab) VH: QVQLVQSGAEVKKPGASVKVSCKASGFDIQDTYMHWVRQAPGQGLEWMGRIDPASGHTKYDPKFQGRATITTDTSASTAYLQLSSLRSEDTAVYYCARSGGLPDFWGQGTTVTVSS VL: EIVLTQSPGTLSLSPGERATLSCRASSSVSYMYWYQQKPGQAPRLLIYATSNLASGIPDRFSGSGSGTDFTLTISRLEPEDFAVYYCQQWSRNPRTFGGGTKLEIK"

# Second part, the binder before the results:
Binder,"IC50, inhibition of IFN-γ production, human whole blood assay [1] [nM]",binding result [2],binding result [3],binding result [4],binding result [5],binding result [6]
"clone 47, modified IgG1 / kappa (antibody) heavy: not shown light: EIVLTQSPGTLSLSPGERATLSCRASSSVSYMYWYQQKPGQAPRLLIYATSNLASGIPDRFSGSGSGTDFTLTISRLEPEDFAVYYCQQWEGNPRTFGGGTKLEIKRTVAAPSVFIFPPSDEQLKSGTASVVCLLNNFYPREAKVQWKVDNALQSGNSQESVTEQDSKDSTYSLSSTLTLSKADYEKHKVYACEVTHQGLSSPVTKSFNRGEC",1.26,–,–,–,–,–
"clone 23, IgG2 / kappa (antibody) heavy: QVQLVQSGAEVKKPGASVKVSCKASGFDIQDTYMHWVRQAPGQGLEWMGRIDPASGHLKYDPKFQNRVTMTRDTSTSTVYMELSSLRSEDTAVYYCARSGGLPDKWGQGTTVTVSSASTKGPSVFPLAPCSRSTSESTAALGCLVKDYFPEPVTVSWNSGALTSGVHTFPAVLQSSGLYSLSSVVTVPSSNFGTQTYTCNVDHKPSNTKVDKTVERKCCVECPPCPAPPVAGPSVFLFPPKPKDTLMISRTPEVTCVVVDVSHEDPEVQFNWYVDGVEVHNAKTKPREEQFNSTFRVVSVLTVVHQDWLNGKEYKCKVSNKGLPAPIEKTISKTKGQPREPQVYTLPPSREEMTKNQVSLTCLVKGFYPSDIAVEWESNGQPENNYKTTPPMLDSDGSFFLYSKLTVDKSRWQQGNVFSCSVMHEALHNHYTQKSLSLSPGK light: EIVLTQSPGTLSLSPGERATLSCRASSSVSYMYWYQQKPGQAPRLLIYATSNLASGIPDRFSGSGSGTDFTLTISRLEPEDFAVYYCQQWEGNPRTFGGGTKLEIKRTVAAPSVFIFPPSDEQLKSGTASVVCLLNNFYPREAKVQWKVDNALQSGNSQESVTEQDSKDSTYSLSSTLTLSKADYEKHKVYACEVTHQGLSSPVTKSFNRGEC",0.33,–,–,–,–,–
"Clone X-V Fab (Fab, V domains shown, Fab) VH: QVQLVQSGAEVKKPGASVKVSCKASGFDIQDTYMHWVRQAPGQGLEWMGRIDPASGHTKYDPKFQVRATITTDTSASTAYLQLSSLRSEDTAVYYCARSGGLPDFWGQGTTVTVSS VL: EIVLTQSPGTLSLSPGERATLSCRASSSVSYMYWYQQKPGQAPRLLIYATSNLASGIPDRFSGSGSGTDFTLTISRLEPEDFAVYYCQQWSGNPRTFGGGTKLEIK",–,binds,no binding,no binding,no binding,binds
"Clone XL3-6 Fab (Fab, V domains shown, Fab) VH: QVQLVQSGAEVKKPGASVKVSCKASGFDIQDTYMHWVRQAPGQGLEWMGRIDPASGHTKYDPKFQGRATITTDTSASTAYLQLSSLRSEDTAVYYCARSGGLPDFWGQGTTVTVSS VL: EIVLTQSPGTLSLSPGERATLSCRASSSVSYMYWYQQKPGQAPRLLIYATSNLASGIPDRFSGSGSGTDFTLTISRLEPEDFAVYYCSQWSGNPRTFGGGTKLEIK",–,binds,no binding,no binding,no binding,binds
"Clone XL3-10 Fab (Fab, V domains shown, Fab) VH: QVQLVQSGAEVKKPGASVKVSCKASGFDIQDTYMHWVRQAPGQGLEWMGRIDPASGHTKYDPKFQGRATITTDTSASTAYLQLSSLRSEDTAVYYCARSGGLPDFWGQGTTVTVSS VL: EIVLTQSPGTLSLSPGERATLSCRASSSVSYMYWYQQKPGQAPRLLIYATSNLASGIPDRFSGSGSGTDFTLTISRLEPEDFAVYYCQQWSGNPRSFGGGTKLEIK",–,binds,no binding,no binding,no binding,binds
